Here are results for four substances from patent US6261772.

In data set [1] the target is T1, VP16-HA-Tap full length (Homo sapiens) (UniProt Q9UBU9).
T1 sequence: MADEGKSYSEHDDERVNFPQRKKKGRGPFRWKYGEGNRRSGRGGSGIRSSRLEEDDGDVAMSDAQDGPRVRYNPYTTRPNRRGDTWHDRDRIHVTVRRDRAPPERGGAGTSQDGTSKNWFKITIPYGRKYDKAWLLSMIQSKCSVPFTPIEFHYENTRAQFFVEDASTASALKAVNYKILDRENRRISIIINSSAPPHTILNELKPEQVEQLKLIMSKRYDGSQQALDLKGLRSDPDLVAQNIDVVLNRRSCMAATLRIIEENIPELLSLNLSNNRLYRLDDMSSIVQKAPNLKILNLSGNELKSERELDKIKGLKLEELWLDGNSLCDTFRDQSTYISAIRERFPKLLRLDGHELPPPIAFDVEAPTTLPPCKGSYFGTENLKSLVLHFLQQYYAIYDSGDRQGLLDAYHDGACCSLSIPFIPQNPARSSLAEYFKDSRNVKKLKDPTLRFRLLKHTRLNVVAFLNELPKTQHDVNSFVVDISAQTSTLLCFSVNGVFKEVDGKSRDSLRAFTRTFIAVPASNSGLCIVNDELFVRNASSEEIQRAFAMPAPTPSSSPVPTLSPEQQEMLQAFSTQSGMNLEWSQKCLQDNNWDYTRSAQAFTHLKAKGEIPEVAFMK
As to the kind of experiment: one_hybrid.

Data set [2] addresses T2, Tat-Tap full length (Homo sapiens) (UniProt Q9UBU9).
T2 sequence: T1 sequence
As to the kind of experiment: cell_activity. The following applies: 293T.

The substance iron response element yielded an activity in data set [1] (yeast three-hybrid) of less than 4 mOD/ml.
On the same count and under the same terms, next, CTE antisense: less than 4 mOD/ml.
Regarding MPMV CTE, the activity in data set [1] (yeast three-hybrid beta-gal, VP16 alone 11) came to 602 mOD/ml. In addition, the activity (fold activation) in data set [2] came out at 20.
HIV-1 TAR yielded an activity in data set [1] (yeast three-hybrid) of less than 4 mOD/ml.
